B1: Zinc finger homeobox protein 4, residues 2183 to 2238; numbered along this chain, Q86UP3 (parent)
chain: SSRTRFTDYQLRVLQDFFDTNAYPKDDEIEQLSTVLNLPTRVIVVWFQNARQKARK
B2: SWI/SNF complex subunit SMARCC2, residues 599 to 641; numbered along this chain, Q8TAQ2 (parent)
chain: REWTEQETLLLLEALEMYKDDWNKVSEHVGSRTQDECILHFLR

Variants of: B1
Assay: abundance fitness (aPCA) (normalised: wild type 0, dead -1); higher = more abundant; growth selection in yeast, the domain comes from the species named
Details: Homo sapiens

Abundance fitness, by site and new letter:
K56: Q -0.178 | L -0.33 | P 0.04 | N -0.248 | Y 0.061 | S -0.366 | I -0.238 | M -0.079 | T 0.029 | R -0.188

Variants of: B2
Assay: as above
Details: Homo sapiens

Abundance fitness: each site, then its substitutions
L9: G 0.147 | V -0.023 | H 0.247 | A 0.142 | W -0.118 | N 0.099 | I 0.11 | K 0.308 | D -0.093 | M 0.2 | C 0.134 | E -0.016 | T 0.243 | Q 0.271 | F -0.16 | Y -0.024 | P -0.307 | R 0.168 | S 0.144
L10: F -0.27 | D -0.224 | E 0.346 | C -0.057 | A -0.424
E7: W -1.27 | K -0.921 | P -0.804 | D -0.557 | N -0.948 | L -0.833 | G -0.756 | V -0.815 | Y -1.26 | T -0.745 | A -0.448 | F -1.44 | R -0.887 | Q 0.1
E2: N 0.317 | C -0.52 | V 0.247 | S 0.37 | K 0.344 | H 0.287 | F -0.463 | Q 0.403 | D 0.56 | A 0.077 | G 0.184 | L 0.21 | M 0.135 | R 0.165 | T 0.414 | P 0.278 | Y 0.42
W3: I -0.275 | Y -0.354 | H -0.058 | A -0.539 | E -0.431 | G -0.424 | Q -0.247 | C -0.518 | D 0.1 | M -0.181 | T -0.202 | L -0.168 | S -0.317 | K 0.681 | N -0.226 | V -0.203 | P -0.045
Q6: T -0.191 | Y -0.206 | G 0.002 | K -0.167 | D -0.133 | R -0.003 | W -0.025 | H -0.282 | A 0.117 | E -0.485 | S -0.015 | F -0.211 | L -0.116 | N 0.046 | I -0.04 | P 0.026 | V -0.117 | M 0.144 | C -0.394
T8: S -0.102 | K 0.075 | R 0.354 | E 0.099 | F -0.224 | W -0.205 | D -0.177 | N 0.287 | L -0.001 | V 0.02 | A 0.109 | Q 0.316 | G 0.156 | M 0.124 | P -0.843 | C -0.006 | H 0.291 | I 0.046
R1: V 0.316 | M 0.298 | P -0.025 | K 0.35 | E 0.251 | Q 0.526 | C 0.225 | H -0.26 | L 0.094 | Y 0.033 | D 0.232 | T 0.287 | I 0.382 | G 0.142 | A 0.244 | F 0.36
E5: P -0.39 | Y 0.116 | C -0.104 | R -0.339 | S -0.506 | A -0.227 | L -0.442 | M -0.026 | D -0.692 | N -0.362 | F -0.347 | T 0.004 | I -0.178 | V -0.189 | H -0.153 | W -0.201 | Q 0.164
T4: F -0.32 | S 0.056 | V -0.552 | W -0.623 | M 0.142 | D -0.608 | A -0.309 | R -0.305 | N 0.18 | C -0.705 | L -0.247 | Y -0.307 | G -0.794 | E -0.042 | I 0.029

— the Human Domainome abundance scans (Beltran et al. 2025)
